Measurements as given in US20190092852A1 (Genentech, published 2019).
Substitutions are numbered along the chain they refer to. “And” between values parts separate entries of the source, which are not always exact repeats. Identical values can stand only once.

T1: cyno IL-33 N-His (cynomolgus monkey)
T1 chain: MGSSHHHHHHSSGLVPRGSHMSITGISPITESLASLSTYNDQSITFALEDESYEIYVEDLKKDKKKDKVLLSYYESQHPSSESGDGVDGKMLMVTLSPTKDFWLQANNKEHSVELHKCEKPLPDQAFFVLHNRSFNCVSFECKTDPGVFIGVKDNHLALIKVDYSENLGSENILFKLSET

T2: human IL-33 (Genentech, huIL33.his) (human, UniProt O95760 112-270)
T2 sequence (looked up): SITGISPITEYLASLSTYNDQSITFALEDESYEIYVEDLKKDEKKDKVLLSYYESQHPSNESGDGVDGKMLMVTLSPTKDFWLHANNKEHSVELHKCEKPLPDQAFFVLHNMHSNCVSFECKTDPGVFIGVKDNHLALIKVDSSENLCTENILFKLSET

T3: biotinylated cyno IL-33 (cynomolgus monkey, UniProt A0A2K5W3I1 112-269, biotin-labeled with EZ-LINK NHS-PEG4-Biotin)
T3 construct: also called biotin-cyIL-33
T3 sequence: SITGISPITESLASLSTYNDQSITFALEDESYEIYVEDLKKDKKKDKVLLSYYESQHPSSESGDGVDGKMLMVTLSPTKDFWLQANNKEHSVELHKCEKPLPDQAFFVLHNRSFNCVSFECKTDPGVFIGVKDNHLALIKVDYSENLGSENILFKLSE

T4: human IL-33 (cell-based blocking assay of Example 2) (human, UniProt O95760 112-270)
T4 sequence (looked up): T2 sequence (looked up)

T5: cyno IL-33 (cell-based blocking assay of Example 2) (cynomolgus monkey, UniProt A0A2K5W3I1 95-269)
T5 sequence: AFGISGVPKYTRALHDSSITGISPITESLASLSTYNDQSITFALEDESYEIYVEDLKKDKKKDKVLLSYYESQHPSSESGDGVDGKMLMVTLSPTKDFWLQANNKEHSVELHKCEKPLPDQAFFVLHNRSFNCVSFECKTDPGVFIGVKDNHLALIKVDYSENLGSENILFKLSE

B1: H4H9664P (antibody, V domains shown)
VH: QVQLVESGGGVVQPGRSLRLSCAASGFTFSSYGLHWVRQSPGKGLEWVALISYDGSNKYYADSVKGRFTISRDNSKNTLYLQMNSLRPEDTAGYFCAKSLYTTSWYGGFDYWGQGTLVTVSS
VL: DIQMTQSPSSVSASVGDRVTITCRASQGIRSWLAWYQQKPGKAPNLLIYAASSLQSGVPSRFSGSGSGTDFTLTISSLQPEDFATYYCQQANSFPPTFGPGTKVDIK
B2: H4H9676P (antibody, V domains shown)
VH: EVQLVESGGGLVQPGGSLRLSCSASGFTFSSYAMNWVRQAPGKGLEWVTAISGSGGGTYYADSVKGRFTISRDNSKNSLFLQLNSLRAEDTAVYYCAKQTYTSSWYGGFDIWGQGTMVTVSS
VL: B1 VL with I29F, R30S, K39I, N45K, S53R, S63R, P96L, P100G, D105E
B3: H4H9666P (antibody, V domains shown)
VH: QVQLVQSGAEVKKPGASVKVSCKASGYTFTSYGISWVRQAPGQGLEWMGWIRAYNGYTNYAQKFQGRVTMTTDTSTNTAYMELRTLNSDDTAVYYCARDRYSGSFHGNFDYWGQGTLVTVSS
VL: B1 VL with R30F, N45K, L46V, S53N, Q55E, F94L, P96L, P100G, D105E
B4: H4H9667P (antibody, V domains shown)
VH: EVQLVESGGGLVQPGGSLRLSCAASGFTFSTYSMHWVRQAPGKGLEYVSTINNNGDTTYYADSVKGRFTISRDNSKNTLYLQLGSLRPEDMAVYYCARQTYTSSWYGGFDSWGQGTLVTVSS
VL: B1 VL with R30T, N45K, S53N, S76T, F94L, P96F
B5: H4H9672P (antibody, V domains shown)
VH: EVQLVESGGGLVQPGGSLRLSCAASGFTLRSYVMYWVRQGPGKGLEGVSGISGSSGGTYYTDSVKGRFTISRDNSKNTLFLQMNSLRAEDTAVYFCARSVYSTTWYGGFQHWGQGTLVTVSS
VL: DIQMTQSPSSVSVSVGDRVTITCRASQVISSWLAWYQLKPGKAPKLLIYAASSLQSGVPSRFSGSGSGTDFTLTISGLQPEDFAVYYCQQTNSFPLTFGGGTKVEIK
B6: H4H9670P (antibody, V domains shown)
VH: EVQLVESGGGLVQPGGSLRLSCAASGFTLSSYAMSWVRQAPGKGLEWVSAISGSGGSTYYADSVKGRFTISRDNSKNSLYLQLNSLRAEDTAVYYCAKTLYTTSWYGGFQHWGQGTLVTVSS
VL: DIQMTQSPSSVSASIGDRVTITCRASQGISSWLAWYQQKPGKVPKLLIYAASSLQSGFPSRFSGSGSGTDFTLTISSLQPEDFATYYCQQTHSFPWTVGQGTKVEIK
B7: 10H2.36.F10.30V.54D (antibody, V domains shown)
VH: EVQLVESGGGLVQPGGSLRLSCAASGFTFSNYWMNWVRQAPGKGLEWMAEITLKFNDYSTHYAESVKGRFTISRDNSKNTVYLQMNSLRAEDTAVYYCARRNYGNWYINVWGQGTLVTVSS
VL: DIVMTQSPDSLAVSLGERATINCRASESVDKFGVSFLNWYQQKPGQPPKLLIFVASSQGSGVPDRFSGSGSGTDFTLTISSLQAEDVAVYYCQQSKDIPYTFGQGTKVEIK
notes: Humanized variant of 10H2
B8: 9F6.34.E10 (antibody, V domains shown)
VH: EVQLVQSGAEVKKPGASVKVSCKASGYTFTSYWINWVRQAPGQGLEWIGRIAPGSGFISYNELFKDRVTITRDTSTSTAYLELSSLRSEDTAVYYCAREFYYGSFYGGFAYWGQGTLVTVSS
VL: DIQMTQSPSSLSASVGDRVTITCHASQNIHVWLSWYQQKPGKAPKLLIYKASTLHTGVPSRFSGSGSGTDFTLTISSLQPEDFATYYCQQGQSSPLTFGQGTKVEIK
notes: Humanized variant of 9F6
B9: 2B6.54S (antibody, V domains shown)
VH: EVQLVQSGAEVKKPGASVKVSCKASGYTFSDYNMNWVRQAPGQGLESIGDINPKSGDTFYNQNFKDRATLTIDKSTSTAYLELSSLRSEDTAVYYCARHYYYGSSYGGFVYWGQGTLVTVSS
VL: B8 VL with H30N, A43N, K50A, T53K, S94Y
notes: Humanized variant of 2B6
B10: 2B6.55A (NA) (antibody, V domains shown)
VH: B9 VH with S55N, G56A
VL: B8 VL with H30N, A43N, K50A, T53K, S94Y
notes: Humanized variant of 2B6

Biological target: T1, cyno IL-33 N-His
Test: SPR Biacore T200, 37 C
Procedure: (§1) The binding kinetics of the anti-IL-33 antibody 10C12.38.H6.87Y.58I IgG4 and each anti-IL-33 antibody listed in Table 5 (RG1-RG20) to IL-33 were measured using surface plasmon resonance (SPR) on a BIACORE® T200 instrument (GE Healthcare). Anti-human Fc or anti-murine Fc (GE Healthcare, #BR-1008-39 or BR-1008-38, respectively) was immobilized on a CM5 sensor chip via amine-based coupling according to the manufacturer's protocol. Surfaces were used to capture monoclonal human IgG4 and monoclonal murine IgGs for kinetic studies. Antibody binding was measured to human IL-33 (R&D systems, #3625-IL-010/CF) and cyno IL-33 N-His (SEQ ID NO: 317) (Genentech, Inc.). A three-fold concentration series of cytokine with a range of 3.7 to 100 nM was used for the experiments. Sensograms for binding of IL-33 were recorded using an injection time of 4 min with a flow rate of 30 μl/minute with a running buffer of 0.01 M N-(2-Acetamido)iminodiacetic acid (ADA) pH 7.4, 0.15 M NaCl, 3 mM EDTA, and 0.05% TWEEN®-20. After injection, disassociation of the ligand from the antibody was monitored for 10 min in running buffer. The surface was regenerated in between cycles with an injection of 3 M magnesium chloride or Glycine-HCl pH 1.7. All binding experiments were performed at a temperature of 25′C and 37° C. After subtraction of a blank which contained running buffer only, sensograms observed for IL-33 binding to anti-IL-33 antibodies were analyzed using a 1:1 Langmuir binding model with software supplied by the manufacturer to calculate the kinetics and binding constants, including the dissociation constant (KD). Dissociative half-lives (t_{1/2}) were calculated from the kinetic rate constants. KD (M)=koff/kₒₙ and t_{1/2} (min)=ln(2)/(60*koff). […] In Tables 6-9, *IC indicates the result is inconclusive due to weak capture of antibody was observed, leading to poor binding data.

Binder | Kd [nM] | koff [s⁻¹] | kon [M⁻¹ s⁻¹] | t1/2 [min]
B1 | 10.4 | 0.00213 | 205000 | 5
B2 | 6.93 | 0.0111 | 1.6e+06 | 1
B3 | 47.4 | 0.0139 | 293000 | 1
B4 | 5.38 | 0.00214 | 398000 | 5
B5 | 13 | 0.00757 | 584000 | 2
B6 | 5.82 | 0.00221 | 380000 | 5

biological target: T2, human IL-33 (Genentech, huIL33.his); test: SPR Biacore

Binder | Kd [nM]
B7 | 0.22
B8 | 0.795
B9 | 336
B10 | 0.363

biological target: T3, biotinylated cyno IL-33; test: competitive ELISA, biotin-cyIL-33 to coated hST2-Fc
Procedure: The ability of the anti-IL-33 antibody 10C12.38.H6.87Y.58I IgG4 and each anti-IL-33 antibody listed in Table 5 (RG1-RG20) to block either human IL-33 or cyno IL-33 binding to human ST2 receptor was tested in a competitive binding ELISA. Briefly, 1 μg/ml of recombinant human ST2-Fc chimera protein prepared in coating buffer (50 mM sodium carbonate, pH 9.6) was coated on a 384-well MAXISORP® plate (Nalgene Nunc International; Rochester, N.Y.) and incubated overnight at 4° C. On the next day, non-specific binding was blocked with PBS containing 0.5% (w/v) solution of bovine serum albumin (BSA). Fixed concentrations of biotinylated human or cyno IL-33 prepared in assay buffer (25 mM PBS, pH 7.2, 0.1% BSA, 0.05% TWEEN®-20) were mixed with an equal volume of serially-diluted anti-IL-33 antibodies or assay buffer alone and incubated for 1 h at room temperature. The final assay concentrations of biotinylated human IL-33 or cyno IL-33 were 20 pM and 45 pM, respectively, and the final assay concentration of each antibody ranged from 0-300 nM. The pre-mixed solutions were added to the ST2-Fc coated plate and incubated for 1 h at room temperature. The binding of biotinylated IL-33 to coated ST2-Fc was detected by the sequential addition of Streptavidin Poly-HRP80 (Fitzgerald; Buckinghamshire, UK) and 3,3′,5,5′-tetramethyl benzidine (TMB) Microwell Peroxidase Substrate System (KPL; Gaithersburg, Md.). The absorbance (450 nm) was recorded using a […] ASCENT® plate reader (Thermo Scientific; Rockford, Ill.). The binding activity (%) of biotin-IL-33 to ST2 in the presence of anti-IL-33 was plotted as a function of antibody concentration. The data generated were fitted to a four-parameter equation to determine IC₅₀ values for each antibody (FIGS. 25A and 25B) using Prism software (Graphpad Software; La Jolla, Calif.). The maximum blocking (%) of each antibody was calculated as the ratio of the reduction in signal measured in the presence of antibody relative to the difference between the signal with IL-33 alone and background measurements.

Binder | Maximum Blocking [%] | IC50 [nM]
B1 | 10 | 
B4 | 7 | 
B6 | 27 | 150

biological target: T4, human IL-33 (cell-based blocking assay …); test: cell-based or functional assay

Binder | Cell assay (hu) IC90
B7 | 0.344 µg/mL and 2.27 nM
B8 | 0.0128 µg/mL and 0.84 nM

biological target: T5, cyno IL-33 (cell-based blocking assay …); test: cell-based or functional assay

Binder | Cell assay (cy) IC90
B7 | > 1.5 µg/mL and > 9.9 nM
B8 | > 1.5 µg/mL and > 9.9 nM

Biological target: T1, cyno IL-33 N-His
Test: SPR Biacore T200, 25 C
Procedure: as §1

Binder | Kd [nM] | koff [s⁻¹] | kon [M⁻¹ s⁻¹] | t1/2 [min]
B1 | 5.62 | 0.000556 | 99000 | 21
B2 | 3.15 | 0.00248 | 787000 | 5
B3 | 38 | 0.00625 | 164000 | 2
B4 | 2.83 | 0.00059 | 208000 | 20
B5 | 5.74 | 0.0019 | 331000 | 6
B6 | 2.63 | 0.000557 | 212000 | 21
